Reference: article PMC3991817
Like-named read-outs stand apart in the source and are kept apart here.

T1: Nkx2-1 (Rattus norvegicus (rat), UniProt P23441 1-372)
T1 sequence: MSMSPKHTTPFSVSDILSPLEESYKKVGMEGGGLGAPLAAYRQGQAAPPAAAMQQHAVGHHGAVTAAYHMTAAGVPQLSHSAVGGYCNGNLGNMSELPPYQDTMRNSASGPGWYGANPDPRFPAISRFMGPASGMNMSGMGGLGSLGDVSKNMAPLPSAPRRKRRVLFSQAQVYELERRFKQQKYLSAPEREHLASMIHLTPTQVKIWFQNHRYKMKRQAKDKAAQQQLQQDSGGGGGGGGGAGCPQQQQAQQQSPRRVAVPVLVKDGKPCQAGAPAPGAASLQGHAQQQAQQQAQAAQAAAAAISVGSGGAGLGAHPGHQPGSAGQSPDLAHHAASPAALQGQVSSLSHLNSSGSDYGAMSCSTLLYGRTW

B1: oligonucleotide CT (dsDNA)
DNA 1: CTGTCTAAGCTTGAGTGGGCATCA
DNA 2: TGATGCCCACTCAAGCTTAGACAG
B2: oligo B (dsDNA)
DNA 1: GAACCAGGGATTCTTCACACTTCATAGAGCAGCT
DNA 2: AGCTGCTCTATGAAGTGTGAAGAATCCCTGGTTC

What was measured:
Experiment in all cases: EMSA
Pax8b [1] = biological target: T2, Pax8b (Oncorhynchus mykiss (rainbow trout), UniProt W0S4A0 1-303)
Pax8a [2] = biological target: T3, Pax8a (Oncorhynchus mykiss (rainbow trout), UniProt W0S3W1 1-458)
Nkx2-1 = biological target: T1, Nkx2-1
Pax8a [3] = biological target: T3, Pax8a; remark: listed apart in the source
Pax8b [4] = biological target: T2, Pax8b; remark: listed apart in the source

Binder	binding result (Pax8b [1])	binding result (Pax8a [2])	binding result (Nkx2-1)	binding result (Pax8a [3])	binding result (Pax8b [4])
B1	binds	binds	–	–	–
B2	–	–	binds	binds	binds
